T1: activin A (UniProt P08476 311-426)
T1 sequence (looked up): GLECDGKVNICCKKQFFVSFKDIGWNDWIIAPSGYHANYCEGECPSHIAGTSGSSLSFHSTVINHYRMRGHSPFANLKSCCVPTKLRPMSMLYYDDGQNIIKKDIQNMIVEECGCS

T2: GDF11 (UniProt O95390 299-407)
T2 sequence (looked up): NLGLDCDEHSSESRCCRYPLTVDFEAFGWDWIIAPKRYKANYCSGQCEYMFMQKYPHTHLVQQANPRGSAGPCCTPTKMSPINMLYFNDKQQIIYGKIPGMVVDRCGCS


How the values were obtained:
activin A [1] = biological target: T1, activin A; experiment: cell-based or functional assay
GDF11 [2] = biological target: T2, GDF11; experiment: cell-based or functional assay
activin A [3] = biological target: T1, activin A; experiment: binding assay, method not stated
GDF11 [4] = biological target: T2, GDF11; experiment: binding assay, method not stated

Row | Binder | IC50 (ng/ml), A-204 Reporter Gene Assay (activin A [1]) | IC50 (ng/ml), A-204 Reporter Gene Assay (GDF11 [2]) | Kd (activin A [3]) | Kd (GDF11 [4])
1 | FST(315)-IgG2 (Fc fusion, Expressed with the follistatin leader in HEK-293 or CHO cells; also called mature FST(315)-IgG2) GNCWLRQAKNGRCQVLYKTELSKEECCSTGRLSTSWTEEDVNDNTLFKWMIFNGGAPNCIPCKETCENVDCGPGKKCRMNKKNKPRCVCAPDCSNITWKGPVCGLDGKTYRNECALLKARCKEQPELEVQYQGRCKKTCRDVFCPGSSTCVVDQTNNAYCVTCNRICPEPASSEQYLCGNDGVTYSSACHLRKATCLLGRSIGLAYEGKCIKAKSCEDIQCTGGKKCLWDFKVGRGRCSLCDELCPDSKSDEPVCASDNATYASECAMKEAACSSGVLLEVKHSGSCNSISEDTEEEEEDEDQDYSFPISSILEWTGGGVECPPCPAPPVAGPSVFLFPPKPKDTLMISRTPEVTCVVVDVSHEDPEVQFNWYVDGVEVHNAKTKPREEQFNSTFRVVSVLTVVHQDWLNGKEYKCKVSNKGLPAPIEKTISKTKGQPREPQVYTLPPSREEMTKNQVSLTCLVKGFYPSDIAVEWESNGQPENNYKTTPPMLDSDGSFFLYSKLTVDKSRWQQGNVFSCSVMHEALHNHYTQKSLSLSPGK | 10 ng/mL | 15 ng/mL | < 0.01 nM | < 0.01 nM
2 | FST(288)-IgG2 (Fc fusion, Expressed with the follistatin leader in HEK-293 or CHO cells; also called mature FST(288)-IgG2) GNCWLRQAKNGRCQVLYKTELSKEECCSTGRLSTSWTEEDVNDNTLFKWMIFNGGAPNCIPCKETCENVDCGPGKKCRMNKKNKPRCVCAPDCSNITWKGPVCGLDGKTYRNECALLKARCKEQPELEVQYQGRCKKTCRDVFCPGSSTCVVDQTNNAYCVTCNRICPEPASSEQYLCGNDGVTYSSACHLRKATCLLGRSIGLAYEGKCIKAKSCEDIQCTGGKKCLWDFKVGRGRCSLCDELCPDSKSDEPVCASDNATYASECAMKEAACSSGVLLEVKHSGSCNTGGGVECPPCPAPPVAGPSVFLFPPKPKDTLMISRTPEVTCVVVDVSHEDPEVQFNWYVDGVEVHNAKTKPREEQFNSTFRVVSVLTVVHQDWLNGKEYKCKVSNKGLPAPIEKTISKTKGQPREPQVYTLPPSREEMTKNQVSLTCLVKGFYPSDIAVEWESNGQPENNYKTTPPMLDSDGSFFLYSKLTVDKSRWQQGNVFSCSVMHEALHNHYTQKSLSLSPGK | 30 ng/mL | 41 ng/mL | < 0.01 nM | < 0.01 nM
3 | FST(303)-IgG2 (Fc fusion) GNCWLRQAKNGRCQVLYKTELSKEECCSTGRLSTSWTEEDVNDNTLFKWMIFNGGAPNCIPCKETCENVDCGPGKKCRMNKKNKPRCVCAPDCSNITWKGPVCGLDGKTYRNECALLKARCKEQPELEVQYQGRCKKTCRDVFCPGSSTCVVDQTNNAYCVTCNRICPEPASSEQYLCGNDGVTYSSACHLRKATCLLGRSIGLAYEGKCIKAKSCEDIQCTGGKKCLWDFKVGRGRCSLCDELCPDSKSDEPVCASDNATYASECAMKEAACSSGVLLEVKHSGSCNSISEDTEEEEEDEDQTGGGVECPPCPAPPVAGPSVFLFPPKPKDTLMISRTPEVTCVVVDVSHEDPEVQFNWYVDGVEVHNAKTKPREEQFNSTFRVVSVLTVVHQDWLNGKEYKCKVSNKGLPAPIEKTISKTKGQPREPQVYTLPPSREEMTKNQVSLTCLVKGFYPSDIAVEWESNGQPENNYKTTPPMLDSDGSFFLYSKLTVDKSRWQQGNVFSCSVMHEALHNHYTQKSLSLSPGK | 2 ng/mL | 18 ng/mL |  | 
4 | FST(291)-IgG2 (Fc fusion, Expressed with the follistatin leader in HEK-293 or CHO cells; also called mature FST(291)-IgG2) GNCWLRQAKNGRCQVLYKTELSKEECCSTGRLSTSWTEEDVNDNTLFKWMIFNGGAPNCIPCKETCENVDCGPGKKCRMNKKNKPRCVCAPDCSNITWKGPVCGLDGKTYRNECALLKARCKEQPELEVQYQGRCKKTCRDVFCPGSSTCVVDQTNNAYCVTCNRICPEPASSEQYLCGNDGVTYSSACHLRKATCLLGRSIGLAYEGKCIKAKSCEDIQCTGGKKCLWDFKVGRGRCSLCDELCPDSKSDEPVCASDNATYASECAMKEAACSSGVLLEVKHSGSCNSISTGGGVECPPCPAPPVAGPSVFLFPPKPKDTLMISRTPEVTCVVVDVSHEDPEVQFNWYVDGVEVHNAKTKPREEQFNSTFRVVSVLTVVHQDWLNGKEYKCKVSNKGLPAPIEKTISKTKGQPREPQVYTLPPSREEMTKNQVSLTCLVKGFYPSDIAVEWESNGQPENNYKTTPPMLDSDGSFFLYSKLTVDKSRWQQGNVFSCSVMHEALHNHYTQKSLSLSPGK | 20 ng/mL | 26 ng/mL | < 0.01 nM | < 0.01 nM
5 | FST(284)-IgG2 (Fc fusion) GNCWLRQAKNGRCQVLYKTELSKEECCSTGRLSTSWTEEDVNDNTLFKWMIFNGGAPNCIPCKETCENVDCGPGKKCRMNKKNKPRCVCAPDCSNITWKGPVCGLDGKTYRNECALLKARCKEQPELEVQYQGRCKKTCRDVFCPGSSTCVVDQTNNAYCVTCNRICPEPASSEQYLCGNDGVTYSSACHLRKATCLLGRSIGLAYEGKCIKAKSCEDIQCTGGKKCLWDFKVGRGRCSLCDELCPDSKSDEPVCASDNATYASECAMKEAACSSGVLLEVKHSTGGGVECPPCPAPPVAGPSVFLFPPKPKDTLMISRTPEVTCVVVDVSHEDPEVQFNWYVDGVEVHNAKTKPREEQFNSTFRVVSVLTVVHQDWLNGKEYKCKVSNKGLPAPIEKTISKTKGQPREPQVYTLPPSREEMTKNQVSLTCLVKGFYPSDIAVEWESNGQPENNYKTTPPMLDSDGSFFLYSKLTVDKSRWQQGNVFSCSVMHEALHNHYTQKSLSLSPGK | 369 ng/mL | 123 ng/mL |  | 
6 | FST(278)-IgG2 (Fc fusion) GNCWLRQAKNGRCQVLYKTELSKEECCSTGRLSTSWTEEDVNDNTLFKWMIFNGGAPNCIPCKETCENVDCGPGKKCRMNKKNKPRCVCAPDCSNITWKGPVCGLDGKTYRNECALLKARCKEQPELEVQYQGRCKKTCRDVFCPGSSTCVVDQTNNAYCVTCNRICPEPASSEQYLCGNDGVTYSSACHLRKATCLLGRSIGLAYEGKCIKAKSCEDIQCTGGKKCLWDFKVGRGRCSLCDELCPDSKSDEPVCASDNATYASECAMKEAACSSGVLTGGGVECPPCPAPPVAGPSVFLFPPKPKDTLMISRTPEVTCVVVDVSHEDPEVQFNWYVDGVEVHNAKTKPREEQFNSTFRVVSVLTVVHQDWLNGKEYKCKVSNKGLPAPIEKTISKTKGQPREPQVYTLPPSREEMTKNQVSLTCLVKGFYPSDIAVEWESNGQPENNYKTTPPMLDSDGSFFLYSKLTVDKSRWQQGNVFSCSVMHEALHNHYTQKSLSLSPGK | 521 ng/mL | 91 ng/mL |  | 
